From paper PMC5384083 come the findings set out here.

The target of assay [1] is CBP, endogenous (UniProt Q92793). Description: co-immunoprecipitation (IP GFP, western blot CBP) quantified with image J. The following applies: MCF7 cells; 3 independent experiments; parent: est. 25; read off a plot. On the technique in general: A western blot detects proteins with antibodies after separation by electrophoresis.
For assay [2] the target is unchanged. Description: co-immunoprecipitation (IP GFP, western blot CBP), band intensity given. The note with it: MCF7 cells.
Assay [3] has as its target Retinoblastoma protein (Rb), endogenous (UniProt P06400). Description: co-immunoprecipitation (IP GFP, western blot Rb) quantified with image J. The following applies: MCF7 cells; 3 independent experiments; parent: est. 32; read off a plot.
Another assay addresses DNMT3b, endogenous (UniProt Q9UBC3). The assay can be described thus: co-immunoprecipitation (IP GFP, western blot DNMT3b), band intensity given. The following applies: MCF7 cells.
Assay [4] has as its target Retinoblastoma protein (Rb), endogenous (UniProt P06400). The assay can be described thus: co-immunoprecipitation (IP GFP, western blot Rb), band intensity given. The following applies: MCF7 cells.

Chain of UniProt P06400 (P06400 whole entry): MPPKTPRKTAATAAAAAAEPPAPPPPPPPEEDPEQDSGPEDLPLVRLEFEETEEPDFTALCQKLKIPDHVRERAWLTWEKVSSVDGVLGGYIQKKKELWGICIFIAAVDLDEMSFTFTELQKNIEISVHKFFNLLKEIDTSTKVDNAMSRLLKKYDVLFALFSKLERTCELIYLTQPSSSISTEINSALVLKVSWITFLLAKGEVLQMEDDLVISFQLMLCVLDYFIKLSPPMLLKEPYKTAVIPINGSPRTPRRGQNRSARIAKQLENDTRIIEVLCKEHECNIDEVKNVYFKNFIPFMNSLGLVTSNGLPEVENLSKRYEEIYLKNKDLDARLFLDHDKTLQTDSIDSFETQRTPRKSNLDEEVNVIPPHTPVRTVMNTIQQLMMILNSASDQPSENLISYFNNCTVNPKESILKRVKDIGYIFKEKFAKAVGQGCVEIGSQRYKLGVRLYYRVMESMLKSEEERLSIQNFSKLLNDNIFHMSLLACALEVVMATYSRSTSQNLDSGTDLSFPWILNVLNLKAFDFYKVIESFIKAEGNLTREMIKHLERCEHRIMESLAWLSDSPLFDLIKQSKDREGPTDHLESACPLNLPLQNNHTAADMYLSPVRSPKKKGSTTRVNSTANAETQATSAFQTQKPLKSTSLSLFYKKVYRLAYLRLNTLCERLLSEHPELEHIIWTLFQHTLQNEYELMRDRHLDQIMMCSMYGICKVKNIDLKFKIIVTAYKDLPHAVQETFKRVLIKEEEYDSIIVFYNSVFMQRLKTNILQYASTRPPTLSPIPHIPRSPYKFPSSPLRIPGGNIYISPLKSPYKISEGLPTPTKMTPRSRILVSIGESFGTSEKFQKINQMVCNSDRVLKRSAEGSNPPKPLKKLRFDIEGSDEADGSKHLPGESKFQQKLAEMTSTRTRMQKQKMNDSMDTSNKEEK
Chain of UniProt Q92793 (Q92793 whole entry): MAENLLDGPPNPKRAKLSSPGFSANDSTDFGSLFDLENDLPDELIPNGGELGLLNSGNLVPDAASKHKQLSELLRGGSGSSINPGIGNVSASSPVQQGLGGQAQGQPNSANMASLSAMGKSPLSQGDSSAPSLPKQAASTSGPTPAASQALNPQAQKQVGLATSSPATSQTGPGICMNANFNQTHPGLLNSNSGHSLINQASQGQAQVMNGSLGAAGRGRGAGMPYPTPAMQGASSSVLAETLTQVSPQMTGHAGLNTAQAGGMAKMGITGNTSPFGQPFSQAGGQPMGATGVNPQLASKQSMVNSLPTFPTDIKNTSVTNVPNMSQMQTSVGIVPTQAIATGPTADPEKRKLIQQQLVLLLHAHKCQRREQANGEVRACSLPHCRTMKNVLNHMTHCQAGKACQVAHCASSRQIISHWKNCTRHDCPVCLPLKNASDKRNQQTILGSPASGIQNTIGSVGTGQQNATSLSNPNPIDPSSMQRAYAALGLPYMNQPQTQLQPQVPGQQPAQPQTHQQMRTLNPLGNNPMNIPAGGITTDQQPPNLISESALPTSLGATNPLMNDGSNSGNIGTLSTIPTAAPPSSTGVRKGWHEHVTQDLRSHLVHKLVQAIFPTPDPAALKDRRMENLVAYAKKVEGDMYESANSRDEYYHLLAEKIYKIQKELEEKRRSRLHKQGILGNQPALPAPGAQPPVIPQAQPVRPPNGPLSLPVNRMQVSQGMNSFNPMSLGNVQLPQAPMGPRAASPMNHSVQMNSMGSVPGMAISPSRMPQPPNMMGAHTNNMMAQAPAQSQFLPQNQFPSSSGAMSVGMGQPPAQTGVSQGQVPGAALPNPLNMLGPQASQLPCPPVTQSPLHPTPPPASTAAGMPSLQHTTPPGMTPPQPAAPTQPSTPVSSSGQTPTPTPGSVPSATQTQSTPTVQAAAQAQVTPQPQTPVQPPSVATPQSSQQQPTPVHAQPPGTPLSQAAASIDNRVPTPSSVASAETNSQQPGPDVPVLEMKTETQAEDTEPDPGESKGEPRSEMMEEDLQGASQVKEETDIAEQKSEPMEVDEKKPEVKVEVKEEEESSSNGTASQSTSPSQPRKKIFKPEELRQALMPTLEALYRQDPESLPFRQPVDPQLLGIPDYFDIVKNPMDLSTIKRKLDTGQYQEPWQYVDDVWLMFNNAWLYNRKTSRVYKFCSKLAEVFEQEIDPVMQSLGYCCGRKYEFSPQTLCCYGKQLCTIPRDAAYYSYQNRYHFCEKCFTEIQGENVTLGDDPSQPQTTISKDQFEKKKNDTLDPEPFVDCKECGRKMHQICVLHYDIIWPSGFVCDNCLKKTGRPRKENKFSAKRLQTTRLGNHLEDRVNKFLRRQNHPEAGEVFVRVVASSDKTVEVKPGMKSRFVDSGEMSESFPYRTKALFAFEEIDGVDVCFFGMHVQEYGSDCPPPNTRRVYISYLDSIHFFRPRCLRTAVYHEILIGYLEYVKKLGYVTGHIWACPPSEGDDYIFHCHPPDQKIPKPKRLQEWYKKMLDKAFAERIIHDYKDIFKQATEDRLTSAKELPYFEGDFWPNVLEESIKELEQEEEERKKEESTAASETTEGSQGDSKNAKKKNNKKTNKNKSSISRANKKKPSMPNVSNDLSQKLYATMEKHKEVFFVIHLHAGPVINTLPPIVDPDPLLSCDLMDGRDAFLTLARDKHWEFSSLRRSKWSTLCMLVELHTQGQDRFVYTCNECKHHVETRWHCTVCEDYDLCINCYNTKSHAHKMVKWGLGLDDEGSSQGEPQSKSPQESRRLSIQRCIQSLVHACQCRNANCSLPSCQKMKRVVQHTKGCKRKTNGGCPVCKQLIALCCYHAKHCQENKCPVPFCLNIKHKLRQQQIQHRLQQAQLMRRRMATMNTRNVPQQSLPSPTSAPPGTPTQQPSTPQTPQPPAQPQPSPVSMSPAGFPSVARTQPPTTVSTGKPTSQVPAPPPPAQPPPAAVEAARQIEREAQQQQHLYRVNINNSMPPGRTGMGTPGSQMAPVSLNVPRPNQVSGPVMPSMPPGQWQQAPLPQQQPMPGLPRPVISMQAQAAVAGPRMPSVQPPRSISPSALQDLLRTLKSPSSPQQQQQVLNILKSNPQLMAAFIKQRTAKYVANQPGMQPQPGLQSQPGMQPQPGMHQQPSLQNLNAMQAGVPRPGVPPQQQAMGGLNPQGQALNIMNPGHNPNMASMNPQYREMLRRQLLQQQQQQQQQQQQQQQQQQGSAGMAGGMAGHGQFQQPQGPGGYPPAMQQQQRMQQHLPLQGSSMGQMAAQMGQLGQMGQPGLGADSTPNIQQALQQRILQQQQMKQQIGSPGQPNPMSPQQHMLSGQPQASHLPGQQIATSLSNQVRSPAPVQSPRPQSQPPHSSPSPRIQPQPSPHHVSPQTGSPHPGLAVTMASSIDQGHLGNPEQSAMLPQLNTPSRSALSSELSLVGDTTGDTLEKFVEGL

Regarding GFP-FoxM1 full length (FL) S715A; S724A, the response (fold pull down) came to 9.7 with CBP, endogenous [1] and 36 in assay [3]. Moreover, the response with CBP, endogenous [2] came out at 6; in the assay with DNMT3b, endogenous it was 90; in assay [4], 24.7.

For the substance GFP-FoxM1 full length (FL) S715D; S724D, the response (fold pull down) worked out at 31 with CBP, endogenous [1] and 5.8 in assay [3]. In addition, the response turned out to be 21 in the assay with CBP, endogenous [2]; 32.3 with DNMT3b, endogenous; 6.7 in assay [4].

GFP-FoxM1 full length (FL) T596A: the response (fold pull down) with CBP, endogenous [1] was determined as 8.4; in assay [3] it was 38. The response stood at 5.1 with CBP, endogenous [2]; 112 with DNMT3b, endogenous; 30.4 in assay [4].
